Results taken from PMC3814370, “Functional assignment of KEOPS/EKC complex subunits in the biosynthesis of the universal t^6A tRNA modification” (Nucleic Acids Research, 2013).

B1: Pcc1–Kae1 binary complex from Pyrococcus abyssi (complex)
chain 1: MKPKRVQGKIVIEFPSEDIAEVVYTSVLYEHVSVPYRRSRVNFRREGRRIVLEIEANDSSAMRGTVNSYLRWIKVALDVLNI
chain 2: MLALGIEGTAHTLGIGIVSEDKVLANVFDTLTTEKGGIHPKEAAEHHARLMKPLLRKALSEAGVSLDDIDVIAFSQGPGLGPALRVVATAARALAVKYRKPIVGVNHCIAHVEITKMFGVKDPVGLYVSGGNTQVLALEGGRYRVFGETLDIGIGNAIDVFARELGLGFPGGPKVEKLAEKGEKYIELPYAVKGMDLSFSGLLTEAIRKYRSGKYRVEDLAYSFQETAFAALVEVTERAVAHTEKDEVVLVGGVAANNRLREMLRIMTEDRGIKFFVPPYDLCRDNGAMIAYTGLRMYKAGISFRLEETIVKQKFRTDEVEIVW
notes: Pcc1, Pyrococcus abyssi; Kae1, Pyrococcus abyssi; Written as the unit of one Pcc1 and one Kae1 (predicted 45 kDa); Its dimerisation is a row of the complex with itself; also called PK; Kae1–Pcc1; source: E. coli Rosetta2 (DE3) pLysS, co-expressed, purified (heat 65°C, Ni-NTA, Superdex 200)

Experiments:
[1] = target: the molecule itself; assay: SEC; gel filtration of purified proteins and complexes on Superdex 200 in storage buffer (LBs); apparent molecular mass (Supplementary Figure S2)
[2] = target: B1; assay: cell-based or functional assay

Row | t^6A synthesis (14C-L-threonine incorporated into tRNA) by an equimolar mix of the two binary complexes, relative to PaKEOPS [2] | Binder | stoichiometry N [1]
1 | – | B1 | 2
2 | ~80% | Bud32–Cgi121 binary complex from Pyrococcus abyssi (complex) chain 1: MKLIKQGAEAKIYLAEFSELYFDYPIKVIVKERIKKRYRIPEIDLKLRKERTIREARILRRAKEFGVNVPYVFEVDTKNMIIVMEYIEGERLKELLEKLPMEERLKVCREVGRQIGKLHEAGIVHGDLTTSNMILREGKVYFIDFGLAEFDDTIEAQGVDLHLLKRAMESTHYKWFERGFEEVLKGYIEIRGEDKGREIREKIREIELRGRYRERSWITQ chain 2: MTPKFKNFKHDNSGQVETYLFEVISKYTMLEIKTKFGKLCIAKVKLASESIERALNLCNDNCQIVSAKCHEEVIFATILAIKAFSSGRNTAKTIKGEILLRLAGVKQIKDAIKIIGARKGENLIIYFGVSDPCSSLKDFISSLGLREEPLKPCDEDEVKRGFERAAIIEAL | –
